Each block holds one substance with its values, some of them ahead of it.
Columns and labels:
[1] = molecular target: full length human tau protein 2N4R (hT40) (human) (UniProt P10636); experiment: Simoa 3-step sandwich, S1D12 capture beads, biotinylated BT2 detector, recombinant hTau40 standard curve; fifth of 8 cells of a shifted row
[2] = molecular target: full length human tau protein 2N4R (hT40) (human) (UniProt P10636); experiment: Simoa 3-step sandwich, BT2 capture beads, biotinylated HT7 detector, recombinant hTau40 standard curve; sixth of 8 cells of a shifted row
[3] = molecular target: full length human tau protein 2N4R (hT40) (human) (UniProt P10636); experiment: Simoa 3-step sandwich, S1D12 capture beads, biotinylated HT7 detector, recombinant hTau40 standard curve; fourth of 8 cells of a shifted row
[4] = molecular target: full length human tau protein 2N4R (hT40) (human) (UniProt P10636); experiment: Simoa 3-step sandwich, BT2 capture beads, biotinylated Tau12 detector, recombinant hTau40 standard curve; first of 8 cells of a shifted row, read in the order of the assay heads
[5] = molecular target: full length human tau protein 2N4R (hT40) (human) (UniProt P10636); experiment: Simoa 3-step sandwich, S1D12 capture beads, biotinylated Tau12 detector, recombinant hTau40 standard curve; third of 8 cells of a shifted row
[6] = molecular target: full length human tau protein 2N4R (hT40) (human) (UniProt P10636); experiment: Simoa, Tau12 on beads, biotinylated HT7 detector
[7] = molecular target: full length human tau protein 2N4R (hT40) (human) (UniProt P10636); experiment: Simoa 3-step sandwich, S1D12 capture beads, biotinylated Tau46 detector, recombinant hTau40 standard curve; seventh of 8 cells of a shifted row

Sequence of full length human tau protein 2N4R (hT40) (human) (P10636 other isoform, or with tags, fused parts or gaps limits assumed): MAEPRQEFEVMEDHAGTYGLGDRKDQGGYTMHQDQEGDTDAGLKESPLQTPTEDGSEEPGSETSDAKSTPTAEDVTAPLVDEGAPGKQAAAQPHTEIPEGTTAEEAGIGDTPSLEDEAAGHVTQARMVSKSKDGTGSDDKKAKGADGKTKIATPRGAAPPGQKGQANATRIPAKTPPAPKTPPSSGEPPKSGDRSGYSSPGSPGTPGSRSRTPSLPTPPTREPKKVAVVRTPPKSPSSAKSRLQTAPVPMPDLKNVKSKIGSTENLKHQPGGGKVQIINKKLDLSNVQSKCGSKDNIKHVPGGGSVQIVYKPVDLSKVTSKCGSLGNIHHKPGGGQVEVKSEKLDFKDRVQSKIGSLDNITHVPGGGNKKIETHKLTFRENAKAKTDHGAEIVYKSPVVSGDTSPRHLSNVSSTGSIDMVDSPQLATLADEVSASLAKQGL

Assay limit of detection [1]: 10.8 pg/mL
Substance: BT2 (antibody)

Assay limit of detection [2]: 0.25 pg/mL | Assay limit of detection [3]: 0.25 pg/mL
Substance: HT7 (antibody)

Assay limit of detection [4]: 0.25 pg/mL | Assay limit of detection [5]: 0.25 pg/mL | Simoa limit of detection [6]: 2.2 pg/mL
Substance: Tau12 mAb (antibody)

Assay limit of detection [7]: 2.2 pg/mL
Substance: Tau46 (antibody)

Reference: US20250147051A1, “METHOD FOR DETECTING A TAU PROTEIN IN A SALIVA SAMPLE” (GTINVENT LIMITED, priority 2022, published 2025)
